Data published in US20260028421A1 (JIANGSU HENGRUI PHARMACEUTICALS, published 2026).
Positions count from the first letter of the chain named.

B1: PL-15 (bispecific antibody)
chain 1: not shown
chain 2: DIVLTQSPASLAVSPGQRATITCRASESVSIHGTHLMHWYQQKPGQPPKLLIYAASKLESGVPARFSGSGSGTDFTLTINPVEAEDTANYYCQQSFEDPLTFGQGTKLEIKRTVASGIPPKIECLPIDISIDEGKCLTVASAFTGEPTPEVTWSTGGRKIHSQEQGRFHIENTDDSTTLTIKDVQKQDGGLYTLTLRNEFGSDSATVNIHIRSI
chain 3: not shown
chain 4: not shown
B2: PL-7 (bispecific antibody)
chain 1: not shown
chain 2: B1 chain 2 with R112G, T113G, V114G, A115G, C136V, A142C
chain 3: not shown
chain 4: not shown
B3: PL-5 (bispecific antibody)
chain 1: not shown
chain 2: B1 chain 2 with R112G, T113G, V114G, A115G, C136V
chain 3: not shown
chain 4: not shown
B4: PL-10 (bispecific antibody)
chain 1: not shown
chain 2: B1 chain 2 with R112G, T113G, V114G, A115G, C136V, A142C
chain 3: not shown
chain 4: not shown
B5: PL-13 (bispecific antibody)
chain 1: not shown
chain 2: B1 chain 2 with C136V, A142C
chain 3: not shown
chain 4: not shown
B6: PL-17 (bispecific antibody)
chain 1: not shown
chain 2: B1 chain 2 with C136V
chain 3: not shown
chain 4: not shown
B7: M64 CHI (antibody, human IgG1, kappa, V domains shown)
VH: EVQLVESGGGLVKPGGSLKLSCAASGFTFSDYGMHWVRQAPEKGLEWVAYISSGSSTIYYADTVKGRFTISRDNAKNTLFLQMTSLRSEDTAMYYCARTRVYFYGSYWYFDVWGTGTTVTVSS
VL: QIVLTQSPAIMSASPGEKVTMTCSASSSVSYMYWYQQKSGTSPKRWIYDTSKLASGVPARFSGSGSGTSYSLTISSLEAEDAATYYCQQWSSDPPYTFGGGTKLEIKR
notes: chimeric
B8: P2-C8 CHI (antibody, human IgG1, kappa, V domains shown)
VH: EVQLQQSGPVLVKPGASVKMSCKVSGYTFTDYYMHWVKQSHGKSLEWIGLINPYNGVTSYNQKFKGKATLTVDKSSSTAYMELNSLTSEDSAVYYCARPPRAYGNYAGYWGQGTTLTVSS
VL: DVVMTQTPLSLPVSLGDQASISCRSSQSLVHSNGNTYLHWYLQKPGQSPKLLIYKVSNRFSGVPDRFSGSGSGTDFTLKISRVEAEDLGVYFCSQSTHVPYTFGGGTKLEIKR
notes: chimeric
B9: P3-D2 CHI (antibody, human IgG1, kappa, V domains shown)
VH: B8 VH with V24A, Y33F, N55S, V57G, S59T, N105D
VL: DVVMTQTPLSLPVSLGDQASISCRSSQSLVHSNGNTYLHWYLQKPGQSPKLLIYKVSNRFSGVPDRFSGSGSGTDFTLKISRVEAEDLGVYFCSQSTHVPLTFGTGTKLEIKR
notes: chimeric
B10: P1-C6 CHI (antibody, human IgG1, kappa, V domains shown)
VH: QVQLQQSGAELARPGASVKLSCKASGYTFTSYGITWVKRRTGQGLGWIGEIYPRSGNTYYNEKFKGKATLTADKSSSTAYMELRSLTSEDSAVYFCARAITTVVGDWYFDVWGTGTTVTVSS
VL: DIVLTQSPASLAMSLGKRATISCRASESVSLIGTNLIHWYQQKPGQPPKLLIHHASNLEAGVPARFSGSGSRTDFTLTIDPVEEDDVAIYYCLQSRKIRTFGGGTKLEIKR
notes: chimeric
B11: 81 L3H2 (antibody, human IgG1, kappa, V domains shown)
VH: EVQLVQSGAEVKKPGASVKVSCKASGYTFTDHNMNWVKQAPGQRLEWMGVMNPKFGTINYNQKFKDKATITRDTSASTAYMELSSLRSEDTAVYYCARDDYPNYFDYWGQGTTVTVSS
VL: DIQLTQSPSFLSASPGDRVTITCSASSSVNYMYWYQQKPGSSPKSWIYRTSNLASGVPSRFSGSGSGTEYTLTISSLQPEDFATYYCQQYHDYPPTFGGGTKVEIKR
notes: h81 H2 + h81 L3
B12: 81 L2H2 (antibody, human IgG1, kappa, V domains shown)
VH: B11 VH
VL: EIVLTQSPDFQSVTPGEKVTITCSASSSVNYMYWYQQKPDQSPKSWIYRTSNLASGVPSRFSGSGSGTDFTLTISSLEAEDAATYYCQQYHDYPPTFGGGTKVEIKR
notes: h81 H2 + h81 L2
B13: 81 L6H2 (antibody, human IgG1, kappa, V domains shown)
VH: B11 VH
VL: B11 VL with S51Q
notes: h81 H2 + h81 L6
B14: 81 L4H2 (antibody, human IgG1, kappa, V domains shown)
VH: B11 VH
VL: B11 VL with L53D
notes: h81 H2 + h81 L4
B15: P3-E4 CHI (antibody, human IgG1, kappa, V domains shown)
VH: QVQLQQPGAELVMPGAAVKLSCKASGYTFINYWMHWLKQRPGQGLEWIGEIDPSDGYTDYNQKFKGKATLTVDKSSSTAYMQLSSLTSEDSAVYYCAISLRGPITFGPFPYWGQGTLVTVSS
VL: DIVLTQSPASLAVSLGQRATISCRASESVSIHGTHLMHWYQQKPGQPPKLLIYAASNLESGVPARFSGSGSETDFTLNIHPVAEEDAATYFCQHSIEDPRTFGGGTKLEIKR
notes: chimeric

Experiments:
hCTLA4 = hCTLA4 (human, UniProt P16410 36-161); test: ELISA
hPDL1 = hPDL1 (human, UniProt Q9NZQ7 19-238); test: ELISA
hGUCY2C ECD-His = molecular target: T1, hGUCY2C ECD-His (human, UniProt P25092 24-430); test: SPR Biacore, antibody captured
T1 construct: also called human GUCY2C protein
Description: To test the affinity of the GUCY2C monoclonal antibodies of the present disclosure for GUCY2C, in this test example, the instruments Biacore 8K and Biacore T200 were used to detect the ability of the antibodies to bind to hGUCY2C-ECD-His (SEQ ID NO: 3). The specific method is as follows: The antibody was affinity-captured using a Protein A biosensor chip conjugated with an anti-human antibody, then a solution containing GUCY2C Protein flowed on the surface of the chip, and reaction signals were detected in real time with an instrument to obtain association and dissociation curves. After dissociation was completed for each cycle, the biosensor chip was washed with 10 mM glycine-hydrochloric acid (pH 1.5) for regeneration. Data fitting was performed using a 1:1 model.

hCTLA4, sequence (P16410 36-161 limits assumed): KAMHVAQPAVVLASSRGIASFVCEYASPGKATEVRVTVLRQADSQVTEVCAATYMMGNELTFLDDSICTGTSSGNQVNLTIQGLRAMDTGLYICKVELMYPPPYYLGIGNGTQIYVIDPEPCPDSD
hPDL1, sequence (Q9NZQ7 19-238 limits assumed): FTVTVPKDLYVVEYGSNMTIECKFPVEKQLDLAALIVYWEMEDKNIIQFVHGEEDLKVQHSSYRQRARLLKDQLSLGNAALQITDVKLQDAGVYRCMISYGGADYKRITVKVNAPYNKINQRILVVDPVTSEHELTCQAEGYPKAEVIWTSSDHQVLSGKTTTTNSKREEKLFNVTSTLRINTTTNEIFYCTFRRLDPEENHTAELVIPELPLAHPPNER

Binder | EC50 (hCTLA4) [nM] | EC50 (hPDL1) [nM] | Kd (hGUCY2C ECD-His) [nM] | koff (hGUCY2C ECD-His) [s⁻¹] | kon (hGUCY2C ECD-His) [M⁻¹ s⁻¹]
B1 | 3.2 | 1.4 |  |  | 
B2 | 7.3 | 0.5 |  |  | 
B3 | 6.7 | 0.7 |  |  | 
B4 | 6.9 | 0.6 |  |  | 
B5 | 4.4 | 0.5 |  |  | 
B6 | 6.2 | 1.4 |  |  | 
B7 |  |  | 20.4 | 0.000348 | 17100
B8 |  |  | 5.12 | 0.000178 | 34900
B9 |  |  | 4.5 | 0.000173 | 38600
B10 |  |  | 2.57 | 0.000181 | 70700
B11 |  |  | 0.41 | 0.000103 | 251000
B12 |  |  | 0.46 | 0.000127 | 274000
B13 |  |  | 0.47 | 0.000114 | 241000
B14 |  |  | 0.98 | 0.000207 | 212000
B15 |  |  | 12.9 | 0.000228 | 17700
